Results published in patent publication US20250250357A1.

Legend:
[1] = biological target: human MSLN on OVCAR3 tumor cells (human) (UniProt Q13421); assay: FACS, OVCAR3 cells
[2] = biological target: human MSLN-R3-3 polypeptide (human); assay: ELISA; antibody 1 nM
[3] = biological target: human MSLN-R3-3 polypeptide (human); assay: ELISA, coated antigen, antibody 1 nM
[4] = biological target: human MSLN-R3-3 polypeptide (human); assay: ELISA, coated antigen, antibody 10 nM
[5] = biological target: human MSLN-R3-3 polypeptide (human); assay: ELISA, coated antigen, antibody 0.1 nM
[6] = biological target: human MSLN-R3-3 polypeptide (human); assay: ELISA, coated antigen, antibody 100 nM
[7] = biological target: human MSLN-R3-3 polypeptide (human); assay: ELISA, coated antigen, antibody 0.01 nM
[8] = biological target: human MSLN-R3-3 polypeptide (human); assay: ELISA, coated antigen, antibody 0.001 nM
[9] = biological target: human MSLN-R3-3 polypeptide (human); assay: ELISA, coated antigen, antibody 0.0001 nM
[10] = biological target: human MSLN-R3-3 polypeptide (human); assay: ELISA, coated antigen, no antibody (blank)
[11] = biological target: human MSLN full-length protein (NCBI: AAH09272.1) on stably transfected CHO-K1 or HEK293T cells (human) (UniProt Q13421); assay: FACS on CHO-K1-hMSLN-2C8 cells; antibody […]
[12] = biological target: human MSLN full-length protein (NCBI: AAH09272.1) on stably transfected CHO-K1 or HEK293T cells (human) (UniProt Q13421); assay: FACS on CHO-K1-hMSLN-2C8 cells; antibody 4 nM
[13] = biological target: human MSLN full-length protein (NCBI: AAH09272.1) on stably transfected CHO-K1 or HEK293T cells (human) (UniProt Q13421); assay: FACS on CHO-K1-hMSLN-2C8 cells; antibody 20 nM
[14] = biological target: human MSLN full-length protein (NCBI: AAH09272.1) on stably transfected CHO-K1 or HEK293T cells (human) (UniProt Q13421); assay: FACS on CHO-K1-hMSLN-2C8 cells; antibody 0.8 nM
[15] = biological target: human MSLN full-length protein (NCBI: AAH09272.1) on stably transfected CHO-K1 or HEK293T cells (human) (UniProt Q13421); assay: FACS on CHO-K1-hMSLN-2C8 cells; antibody 100 nM
[16] = biological target: human MSLN full-length protein (NCBI: AAH09272.1) on stably transfected CHO-K1 or HEK293T cells (human) (UniProt Q13421); assay: FACS on CHO-K1-hMSLN-2C8 cells; antibody 0.032 nM
[17] = biological target: human MSLN full-length protein (NCBI: AAH09272.1) on stably transfected CHO-K1 or HEK293T cells (human) (UniProt Q13421); assay: FACS on CHO-K1-hMSLN-2C8 cells; antibody 0.0064 nM
[18] = biological target: human MSLN full-length protein (NCBI: AAH09272.1) on stably transfected CHO-K1 or HEK293T cells (human) (UniProt Q13421); assay: FACS on CHO-K1-hMSLN-2C8 cells; antibody 0.00128 nM
[19] = biological target: monkey MSLN full-length protein (NCBI: XP_028696439.1) expressed on HEK293T-monkey MSLN cells (monkey); assay: FACS on HEK293T-monkey MSLN cells
[20] = biological target: human MSLN-R3 protein (Met487-Ser606 of NCBI AAH09272.1) expressed on HEK293T-hMSLN-R3 cells (human) (UniProt Q13421); assay: FACS on HEK293T-hMSLN-R3 cells
Chain of human MSLN-R3 protein (Met487-Ser606 of NCBI AAH09272.1) expressed on HEK293T-hMSLN-R3 cells (human) (Q13421 495-614): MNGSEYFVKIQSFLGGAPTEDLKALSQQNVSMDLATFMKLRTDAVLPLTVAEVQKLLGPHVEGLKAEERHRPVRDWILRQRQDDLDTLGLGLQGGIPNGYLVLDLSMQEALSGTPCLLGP

Chain of human MSLN on OVCAR3 tumor cells (human) (Q13421 other isoform, or with tags, fused parts or gaps): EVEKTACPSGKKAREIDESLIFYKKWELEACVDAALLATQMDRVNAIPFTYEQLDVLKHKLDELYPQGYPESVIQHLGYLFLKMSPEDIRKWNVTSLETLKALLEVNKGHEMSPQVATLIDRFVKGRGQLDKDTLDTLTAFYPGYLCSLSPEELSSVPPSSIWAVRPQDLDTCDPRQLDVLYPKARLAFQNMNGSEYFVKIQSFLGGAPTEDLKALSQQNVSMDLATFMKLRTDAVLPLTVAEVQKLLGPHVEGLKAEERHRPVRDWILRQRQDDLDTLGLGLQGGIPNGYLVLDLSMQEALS

B1: F3.80.22-H17 (scFv, not shown: small tags and cut ends)
scFv: EVQLVQSGAEVKKPGATVKISCKVSGYTFTDYEIHWVQQAPGKGLEWMGAFDPEIGGSAYNQKFKDRVTITADKSTDTAYMELSSLRSEDTAVYYCTDYYGSSSGYFDVWGQGTTVTVSSGGGGSGGGGSGGGGSDIVMTQTPLSLPVTPGEPASISCRSSQSLEHNDGNTYLHWFLQKPGQSPQLLIYKVSNRFSGVPDRFSGSGSGTDFTLKISRVEAEDVGVYYCSQSTHVPFTFGQGTKLEIK
Maximum MFI [1]: 456 MFI

B2: Tab106 (YP218, hIgG1) (antibody, V domains shown)
VH: QQQLEESGGGLVKPEGSLTLTCKASGFDLGFYFYACWVRQAPGKGLEWIACIYTAGSGSTYYASWAKGRFTISKASSTTVTLQMTSLAAADTATYFCARSTANTRSTYYLNLWGPGTLVTVSS
VL: DVVMTQTPASVSEPVGGTVTIKCQASQRISSYLSWYQQKPGQRPKLLIFGASTLASGVPSRFKGSGSGTEYTLTISDLECADAATYYCQSYAYFDSNNWHAFGGGTEVVVRT
OD450 nm [2]: 0.98
OD450 [3]: 0.33
OD450 [4]: 1.35
OD450 [5]: 0.08
OD450 [6]: 1.94
OD450 [7]: 0.05
OD450 [8]: 0.05
OD450 [9]: 0.06
OD450 [10]: 0.07
FACS fluorescence intensity [11]: 270
FACS fluorescence intensity [12]: 2780
FACS fluorescence intensity [13]: 6270
FACS fluorescence intensity [14]: 812
FACS fluorescence intensity [15]: 6720
FACS fluorescence intensity [16]: 119
FACS fluorescence intensity [17]: 77
FACS fluorescence intensity [18]: 68

B3: S009-F1.59.1 (antibody, human IgG1, kappa, V domains shown)
VH: EVKLEGSGGGLVQPGGSMMLSCVATGFTFSSYWMNWVRQSPDRGLEWVAEIRLKSNGFAAFYAESVKGRFTISRDDSKSSVYLQMNNLRTEDTGIYYCTYFVHWGQGILVTVSE
VL: DIVLTQSPTSLAVSLGQRATISCRTSESVEYFGTILIQWYQQKPGQPPKLLIFGASNVESGVPARFSGSGSGTDFSLNIHPVEEEDIAMYFCQQNRKVPYTFGGGTTLELKR
Maximum mean fluorescence intensity [19]: 1420

B4: S009-F1.62.9 (antibody, human IgG1, kappa, V domains shown)
VH: EVQLQQSGADLVKPGASVKLSCTVFGLNFKDTFMHWVRQRPEQGLEWIGRIDPANDNSIYGPKFQDKATITADTSSNTAYLHLSSLTSEDTAVYYCLYFDNWGHGTTLTVSS
VL: DIVMTQAASSEPVTPGESVSISCRSDKSLLHSNGHNYLYWFLQRPGQSPHLLIYRMSNLASGVPDRFSGSGSGTAFTLRISRVEAEDVGVYYCMQHLEYPLTFGAGTKLELKR
Maximum mean fluorescence intensity [19]: 965

B5: Tab107 (YP3, hIgG1) (antibody, V domains shown)
VH: QEQLVESGGGLVQPGASLTLTCTASGIDFSRYYMCWVRQAPGKGLEGIACIYIGGSGSTYYASWAKGRFTISKASSTTVTLQMTSLTAADTATYFCARGTNLNYIFRLWGPGTLVTVSS
VL: DVVMTQTPSPVSAAVGGTVTIKCQASQSINNGLAWYQQKPGQPPRLLIYSASNLESGVPSRFKGSGSGTEFTLTISDLECDDAATYYCQCIWDGNSYVNAFGGGTEVVVRT
OD450 nm [2]: 0.07
FACS fluorescence intensity [11]: 264
FACS fluorescence intensity [12]: 2960
FACS fluorescence intensity [13]: 6930
FACS fluorescence intensity [14]: 767
FACS fluorescence intensity [15]: 7860
FACS fluorescence intensity [16]: 120
FACS fluorescence intensity [17]: 70
FACS fluorescence intensity [18]: 63

B6: F3.80.22-H4 (scFv, not shown: small tags and cut ends)
scFv: DIVMTQTPLSLPVTPGEPASISCRSSQSLEHNNGNTYLHWFLQKPGQSPQLLIYKVSNRFSGVPDRFSGSGSGTDFTLKISRVEAEDVGVYYCSQSTHVPFTFGQGTKLEIKGGGGSGGGGSGGGGSEVQLVQSGAEVKKPGATVKISCKASGYTFTDYEIHWVQQAPGKGLEWMGAFDPEIGGSAYNQKFKDRVTITADKSSSTAYMELSSLRSEDTAVYYCTDYYGSSSGYFDVWGTGTTVTVSS
Maximum MFI [1]: 505 MFI

B7: F3.80.22-H6 (scFv, not shown: small tags and cut ends)
scFv: DIVMTQTPLSLPVTPGEPASISCRSSQSLEHNDGNTYLHWFLQKPGQSPQLLIYKVSNRFSGVPDRFSGSGSGTDFTLKISRVEAEDVGVYYCSQSTHVPFTFGQGTKLEIKGGGGSGGGGSGGGGSEVQLVQSGAEVKKPGATVKISCKASGYTFTDYEIHWVQQAPGKGLEWMGAFDPEIGGSAYNQKFKDRVTITADKSTSTAYMELSSLRSEDTAVYYCTDYYGSSSGYFDVWGQGTTVTVSS
Maximum MFI [1]: 473 MFI

B8: F3.80.22-H7 (scFv, not shown: small tags and cut ends)
scFv: DIVMTQTPLSLPVTPGEPASISCRSSQSLEHNDGNTYLHWFLQKPGQSPQLLIYKVSNRFSGVPDRFSGSGSGTDFTLKISRVEAEDVGVYYCSQSTHVPFTFGQGTKLEIKGGGGSGGGGSGGGGSEVQLVQSGAEVKKPGATVKISCKASGYTFTDYEIHWVQQAPGKGLEWMGAFDPEIGGSAYNQKFKDRVTITADKSTSTAYMELSSLRSEDTAVYYCTDYYGSSSGYFDVWGTGTTVTVSS
Maximum MFI [1]: 479 MFI

B9: F3.80.22-H8 (scFv, not shown: small tags and cut ends)
scFv: DIVMTQTPLSLPVTPGEPASISCRSSQSLEHNDGNTYLHWFLQKPGQSPQLLIYKVSNRFSGVPDRFSGSGSGTDFTLKISRVEAEDVGVYYCSQSTHVPFTFGQGTKLEIKGGGGSGGGGSGGGGSEVQLVQSGAEVKKPGATVKISCKASGYTFTDYEIHWVQQAPGKGLEWMGAFDPEIGGSAYNQKFKDRVTITADKSSSTAYMELSSLRSEDTAVYYCTDYYGSSSGYFDVWGTGTTVTVSS
Maximum MFI [1]: 502 MFI

B10: F3.38.10-L2H3a (scFv, not shown: small tags and cut ends)
scFv: DIVMTQSPDSLAVSLGERATINCRSSQSLIHSDGNTYLQWYQQKPGQSPKLLIYKVSNRFSGVPDRFSGSGSGTDFTLTISSLQAEDVAVYYCSQTTHVPFTFGQGTKLEIKGGGGSGGGGSGGGGSEVQLVQSGAEVKKPGASVKVSCKASGYIFTDYYMNWVRQAPGQRLEWMGVINPKQGVISHNQKFKGRVTITVDKSANTAYMELSSLRSEDTAVYYCANYGSRFYAMDYWGQGTTVTVSS
Maximum MFI [1]: 499 MFI

B11: S009-F2.47.1 (antibody, human IgG1, kappa, V domains shown)
VH: QVQLQQPGAELVKPGASVKLSCKASGYTFTSYWMHWVKQRPGQGLEWIGMIHPNSGSTNYNEKFKSKATLTVDKSSSTAYMQLSSLTSEDSAVYYCARPVVPYWYFDVWGTGTTVTVSS
VL: DIVMTQSQKFMSTTVGDRVSITCKASQNVGTAVAWYQQKPGQSPKLLIYSASNRYTGVPDRFTGSGSGTDFTLTISNMQSEDLADYFCQQSSSYPLTFGAGTKLELKR
Maximum mean fluorescence intensity [20]: 4580

B12: S009-F2.58.8 (antibody, human IgG1, kappa, V domains shown)
VH: QVQLLQSGAELAKPGASVKLSCKASGYTFTSYWVHWVKQRPGQGLEWIGYINPNSGYTKYNQKFKDKATLTADKSSSTAYMQLSSLTYEDSAVYYCADHYYGSSRDYFDYWGQGTTLTVSS
VL: QIVLTQSPAIMSASPGEKVTMTCSASSSVSYMYWYQQRPGSSPRLLIYDTSNLASGVPVRFSGSGSGTSYSLTISRMEAEDAATYYCQQWNSYPYTFGGGTKLEIKR
Maximum mean fluorescence intensity [19]: 1000
